Laboratory results taken from the supplement of paper PMC7125110.
± gives the standard error. For part of these data: This sample holds only a part of the variants without activity.

B1: glmS ribozyme (parent)
chain: AUAAAAGCGCCAGAACUACAGAAAUGUAGUUGACGAGGAGGAGGUUUAUCGAAUUUUCGGCGGAUGCCUCCAAA

Columns and labels:
Settings in all cases: with glucosamine-6-phosphate
glucosamine-6-phosphate [1] = variants of: B1; assay: kcat; higher = faster cleavage; RNA array
Outline: (§1)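 Ribozyme variants carrying barcodes were transcribed in situ on sequenced MiSeq chips by E. coli RNA polymerase and tracked at 37 °C with a hybridised Cy3 probe. They were exposed to 40 μM to 10 mM glucosamine-6-phosphate in HEPES/KCl/Mg(OAc)2 buffer. kobs came from exponential decay fits of normalised per-tile medians, and kcat and KM from weighted Michaelis–Menten fits.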

glucosamine-6-phosphate [2] = variants of: B1; assay: KM; higher = weaker cofactor use; RNA array
Outline: as §1

glucosamine-6-phosphate [3] = variants of: B1; assay: self-cleavage kobs at 160 uM GlcN6P; higher = faster cleavage; RNA array
Outline: as §1

glucosamine-6-phosphate [4] = variants of: B1; assay: self-cleavage kobs at 640 uM GlcN6P; higher = faster cleavage; RNA array
Outline: as §1

glucosamine-6-phosphate [5] = variants of: B1; assay: self-cleavage kobs at 2500 uM GlcN6P; higher = faster cleavage; RNA array
Outline: as §1

glucosamine-6-phosphate [6] = variants of: B1; assay: self-cleavage kobs at 10000 uM GlcN6P; higher = faster cleavage; RNA array
Outline: as §1

glucosamine-6-phosphate [7] = variants of: B1; assay: self-cleavage kobs at 40 uM GlcN6P; higher = faster cleavage; RNA array
Outline: as §1

Variant	kcat (glucosamine-6-phosphate [1]) [s⁻¹]	KM (glucosamine-6-phosphate [2]) [µM]	self-cleavage kobs at 160 uM GlcN6P (glucosamine-6-phosphate [3]) [s⁻¹]	self-cleavage kobs at 640 uM GlcN6P (glucosamine-6-phosphate [4]) [s⁻¹]	self-cleavage kobs at 2500 uM GlcN6P (glucosamine-6-phosphate [5]) [s⁻¹]	self-cleavage kobs at 10000 uM GlcN6P (glucosamine-6-phosphate [6]) [s⁻¹]	self-cleavage kobs at 40 uM GlcN6P (glucosamine-6-phosphate [7]) [s⁻¹]
C11A A12C	0.00026 ± 5.5e-05	900 ± 380	4.82e-05 ± 1.5e-05	0.000103 ± 1.8e-05	0.000182 ± 3.2e-05	0.000406 ± 0.00015	–
C10U C34A C50A G51U C70A	5.4e-05 ± 1.3e-05	–	–	–	–	7.55e-05 ± 2.9e-05	–
A6U U57G C67G	2.88e-05 ± 7.6e-06	–	–	–	–	–	–
C11A U47A	8.3e-05 ± 1.6e-05	–	–	–	5.35e-05 ± 2.1e-05	6.56e-05 ± 1.8e-05	–
A6C A15G	0.00015 ± 3.4e-06	2500 ± 150	–	3.25e-05 ± 1.4e-05	7.37e-05 ± 1.3e-05	0.000121 ± 1.6e-05	–
C11A A39C	3.87e-05 ± 5.2e-06	–	–	–	4.76e-05 ± 1.5e-05	3.53e-05 ± 7.7e-06	–
A6U C67U	8.67e-05 ± 4.7e-06	565 ± 160	–	4.42e-05 ± 8.6e-06	8.14e-05 ± 1.1e-05	8.01e-05 ± 6.2e-06	–
A6U C67G	1.15e-05 ± 1.2e-06	–	–	–	–	–	–
G7A A39U	1.87e-05 ± 1.7e-06	2780 ± 970	–	–	–	–	–
C11A G37A	< 1e-05	–	–	–	–	–	–
A6G C16U	0.000459 ± 3.2e-05	3450 ± 450	2.44e-05 ± 1.1e-05	6.74e-05 ± 1e-05	0.000208 ± 2.7e-05	0.000336 ± 3.2e-05	–
C10A A48U	< 1e-05	–	–	< 1e-05	–	< 1e-05	–
C10G C11U C67G	3.06e-05 ± 8.7e-06	–	–	5.14e-05 ± 2.4e-05	–	–	–
C10U C71G	1.65e-05 ± 5.1e-06	–	–	–	–	–	< 1e-05
C10U C71U	3.48e-05 ± 5.8e-06	–	–	–	1.75e-05 ± 5.3e-06	3.05e-05 ± 5.4e-06	< 1e-05
A6G A53G	0.000509 ± 6.7e-05	2390 ± 600	3.62e-05 ± 1.3e-05	9.71e-05 ± 1.5e-05	0.000306 ± 4.1e-05	0.000395 ± 4.4e-05	–
C10A G60U	0.000974 ± 0.00015	1660 ± 470	8.97e-05 ± 1.6e-05	0.000243 ± 3.1e-05	0.000514 ± 8.6e-05	0.000886 ± 8.3e-05	3.82e-05 ± 7.9e-06
C10A G60C	< 1e-05	–	–	< 1e-05	–	–	–
C11A A42G	0.000337 ± 5.9e-05	3420 ± 1100	–	4.77e-05 ± 1.4e-05	0.000184 ± 4.7e-05	0.000239 ± 5e-05	–
